In article PMC9592557, “Structures of SAS-6 coiled coil hold implications for the polarity of the centriolar cartwheel” (Structure(London, England:1993), 2022):
Positions count from the first letter of the chain named. Names and notes keep the numbering of the source. Values belong to the molecule of their own block, whether it stands above or below them.

Experiments:
[1] = biological target: DrSAS-6_CC_(Middle) (Danio rerio) (UniProt Q7ZVT3); experiment: SEC-MALS; step: monomers to the coiled-coil dimer; Superdex 75 or 200 10/300 GL, 10 mM K-PIPES pH 7.2
[2] = biological target: HsSAS-6_CC_(Middle) (human) (UniProt Q6UVJ0); experiment: as above
[3] = biological target: CrSAS-6_CC_(Middle) (C. reinhardtii) (UniProt A9CQL4); experiment: ITC; dilution ITC, step: higher-order complex to coiled-coil dimers; 1.82 mM monomer in the syringe injected into buffer alone, 20°C, 10 mM K-PIPES pH 7.2, dissociation model
[4] = biological target: CrSAS-6_CC_(Middle) (C. reinhardtii) (UniProt A9CQL4); experiment: SEC-MALS; step: monomers to the coiled-coil dimer; Superdex 75 or 200 10/300 GL, 10 mM K-PIPES pH 7.2
ITC = biological target: the molecule itself; experiment: ITC
[5] = biological target: the molecule itself; experiment: cryo-EM cartwheel reconstitution (ring stacking) assay; purified protein dialysed overnight at 4°C into 10 mM K-PIPES pH 7.2 (no salt), vitrified, isolated cartwheels analysed

- stoichiometry N [1]: 2
Molecule: DrSAS-6_CC_(Middle) (from UniProt Q7ZVT3 243-358) (domain or fragment)

- stoichiometry N [2]: 2
Molecule: HsSAS-6_CC_(Middle) (from UniProt Q6UVJ0 211-312) (domain or fragment)

- dH [3]: 1 kcal/mol
- stoichiometry N [4]: 2
B1: CrSAS-6_CC_(Middle) (domain or fragment)
chain: KLREVKYELDTKVSELSHKLGSSEGSNRSLEEETARLRSLNQQLSSSKHELEIQLNEAKAKVLALDEKAQSQGDVIEQQRGRLRDMEAALRQTEQRCADLRDTLASAEGRAKEA
- Kd (ITC): 2300 µM

B2: CrSAS-6NL (domain or fragment, C. reinhardtii, UniProt A9CQL4 1-503, looked up)
chain: MPLLLDDGDPKAQTGFDLSTATTLFWRPVPVHVKQQDREDVLEELTFRILTGVAKQNHNLRILRIHISSDSDLFFLHTLEVSEEDFQSLKNDQGILVDFASFPGKIISLLEKCILAQPGDSPRFQAVLTIRGGESVFKIVEINDFKQLPHITLAFRPGNDSVVKQFLAFRLSEVKGTCHDLSDDLSRTRDDRDSMVAQLAQCRQQLAQLREQYDKHLLEVQAQAKTQQASAHEERIREKSQLKDQFEKERGEMEGRYRDQIAALNTRLGELDTENRKLREVKYELDTKVSELSHKLGSSEGSNRSLEEETARLRSLNQQLSSSKHELEIQLNEAKAKVLALDEKAQSQGDVIEQQRGRLRDMEAALRQTEQRCADLRDTLASAEGRAKEAQAEVLKGNQAIEKLTNDLRLAKEKTKRKAAIILRQEEELQEREQSLANATRDVGVLGQQAESLRKDVASLHSENDSLRSKLEDSKQQLQSNEQMIRWLNQQVTEAQLHASGAT
notes: C. reinhardtii SAS-6, residues 1-503: head domain and full-length coiled-coil domain, without the disordered C-terminal tail; also called WT CrSAS-6NL; C. reinhardtii SAS-6 (1-503); source: E. coli BL21(DE3), purified (HiTrap Talon, 3C cleavage, SEC); not shown: His6, N-terminal, cleaved
- binding result [5]: binds

B3: CrSAS-6VD (domain or fragment, C. reinhardtii, UniProt A9CQL4 1-503, looked up)
chain: B2 chain with V351E, D361N
notes: C. reinhardtii SAS-6, residues 1-503, mutant aimed at the asymmetric coiled-coil complex; also called C. reinhardtii SAS-6 (1-503 V351E/D361N); source: E. coli BL21(DE3), purified (HiTrap Talon, 3C cleavage, SEC); not shown: His6, N-terminal, cleaved
- binding result [5]: binds

B4: CrSAS-6LE (domain or fragment, C. reinhardtii, UniProt A9CQL4 1-503, looked up)
chain: B2 chain with L306A, E326A
notes: C. reinhardtii SAS-6, residues 1-503, control mutant; also called C. reinhardtii SAS-6 (1-503; L306A/E326A); source: E. coli BL21(DE3), purified (HiTrap Talon, 3C cleavage, SEC); not shown: His6, N-terminal, cleaved
- binding result [5]: binds

B5: CrSAS-6LD (domain or fragment, C. reinhardtii, UniProt A9CQL4 1-503, looked up)
chain: B2 chain with L339E, D378N
notes: C. reinhardtii SAS-6, residues 1-503, mutant aimed at the symmetric coiled-coil complex; also called C. reinhardtii SAS-6 (1-503; L339E/D378N); source: E. coli BL21(DE3), purified (HiTrap Talon, 3C cleavage, SEC); not shown: His6, N-terminal, cleaved
- binding result [5]: binds

B6: CrSAS-6LQ (domain or fragment, C. reinhardtii, UniProt A9CQL4 1-503, looked up)
chain: B2 chain with L320A, Q330A
notes: C. reinhardtii SAS-6, residues 1-503, control mutant; also called C. reinhardtii SAS-6 (1-503; L320A/Q330A); source: E. coli BL21(DE3), purified (HiTrap Talon, 3C cleavage, SEC); not shown: His6, N-terminal, cleaved
- binding result [5]: binds
